From the DeepSol protein solubility set

Experiment: soluble on expression in E. coli; label from the status in PepcDB or PDB records

Sequence | soluble on expression in E. coli
MGHHHHHHSHMVLLHVKRGDESQFLLQAPGSTELEELTVQVARVYNGRLKVQRLCSEMEELAEHGIFLPPNMQGLTDDQIEELKLKDEWGEKCVPSGGAVFKKDDIGRRNGQAPNEKMKQVLKKTIEEAKAIISKKQVEAGVCVTMEMVKDALDQLRGAVMIVYPMGLPPYDPIRMEFENKEDLSGTQAGLNVIKEAEAQLWWAAKELRRTKKLSDYVGKNEKTKIIAKIQQRGQGAPAREPIISSEEQKQLMLYYHRRQEELKRLEENDDDAYLNSPWADNTALKRHFHGVKDIKWRPR | not soluble
MGHHHHHHSHMYKRCKRGQDKCMMRPLSNPLTEAYNVQNLYQCLNCDDYHLCNGSLNCDPLVDREGIVCTVTGKYIQCNVRESPMCGAACLDVDIHPEDNTDCILRALFGDIVDIINKLDDIAEIKDKILAGDSLNEHIKKKIECTFPMCANIINCNSQGYSILCSMFVHIIMSIYANKTIYGHMLFKCTRNKKYDTIAKKIREKWMYLE | not soluble
MGHHHHHHSHNSSSCPEIQGFLHVKELGKKSWKKLYVCLRRSGLYCSTKGTSKEPRHLQLLADLEDSNIFSLIAGRKQYNAPTDHGLCIKPNKVRNETKELRLLCAEDEQTRTCWMTAFRLLKYGMLLYQNYRIPQQRKALLSPFSTPVRSVSENSLVAMDFSGQTGRVIENPAEAQSAALEEGHAWRKRSTRMNILGSQSPLHPSTLSTVIHRTQ | not soluble
MGHHHHHHSHQADEGQARKSQLQRRFKEFLRQYRVGTDRTGFTFKYRDELKRHYNLGEYWIEVEMEDLASFDEDLADYLYKQPAEHLQLLEEAAKEVADEVTRPRPSGEEVLQDIQVMLKSDASPSSIRSLKSDMMSHLVKIPGIIIAASAVRAKATRISIQCRSCRNTLTNIAMRPGLEGYALPRKCNTDQAGRPKCPLDPYFIMPDKCKCVDFQTLKLQELPDAVPHGEMPRHMQLYCDRYLCDKVVPGNRVTIMGIYSIKKFGLTTSRGRDRVGVGIRSSYIRVLGIQVDTDGSGR | not soluble
MGHHHHHHSHQKGRYTELVEEKYKLFGELYKTFTKGGLICCSIESPNQEEQEVETDWGLLKGHTYTMTDIRKIRLGERLVEVFSAEKVYMVRLRNPLGRQEWSGPWSEISEEWQQLTASDRKNLGLVMSDDGEFWMSLEDFCRNFHKLNVCRNVNNPIFGR | not soluble
MGHHHHHHSHREMVLQFLAFSRVAQDCRGTSWPKTVYFTFQFYRFPPATTPRLQLVQLDEAGQPSSGALTHILVPVSRDGTFDAGSPGFQLRYMVGPGFLKPGERRCFARYLAVQTLQIDVWDGDSLLLIGSAAVQMKETSHIFSVSQ | not soluble
MGHHHHHHSHSAAKGTGITRKKTFKEVANAVKISASLMGTVMAKRVKATILYGSETGRAQSYAQQLGRLFRKAFDPRVLCMDEYDVVSLEHETLVLVVTSTFGNGDPPENGESFAAALMEMSGPYN | not soluble
MGHHHHHHSHSKEITVRGHNCPKPVLNFYEANFPANVMDVIARQNFTEPTAIQAQGWPVALSGLDMVGVAQTGSGKTLSYLLPAIVHINHQPFLERGDGPICLVLAPTRELAQQVQQVAAEYCRACRLKSTCIYGGAPKGPQIRDLERGVEICIATPGRLIDFLECGKTNLRRTTYLVLDEADRMLDMGFEPQIRKIVDQIRPDRQTLMWSATWPKEVRQLAEDFLKDYIHINIGALELSANHNILQIVDVCHDVEKDEKLIRLMEEIMSEKENKTIVFVETKRRCDELTRKMRRDGWPAMGIHGDKSQQERDWVLNEFKHGKAPILIATDVASRGLDVEDVKFVINYDYPNSSEDYIHRIGRTARSTKTGTAYTFFTPNNIKQVSDLISVLR | not soluble
MGHHKAMPYADVAAFIIELRKREAVAATALEFTILTAARSGETLGAKWHEIDWKDKIWTVPAERMKAAREHRVPLSSRTITILKKLAEFGSDENSFVFPGQKPGKPLSVMAMDMVLRRMEVDVTVHGFRSSFRDWCGEVSNFPRDVAEAALAHLEHHHHHH | soluble
MGIFSRFADIVNSNISALLDKAEDPEKMIRLIIQEMEDTLVEVRTNSAKAIADKKELARKVEMLEEQIGEWGQKASLALVKEREDLARAALIEKQKLEQVVKGLHTEQTLVEETINKLTGEIGKLENKIAETRAKQQALAIRNQTASNRRDVQKHLHTSRTNEAMAKFDQYSRKIDEMEAEADLYAQTGNAKSLEQEFAELQAQDEIEKELAKLKEQMSSQDKLEHHHHHH | soluble
MGIIDKIKAIEEEMARTQKNKATEHHLGLLKGKLARYRQQLLADEAGSGGGGGSGFEVAKSGDARVVLIGYPSVGKSSLLGKITTTKSEIAHYAFTTLTSVPGVLKYQGAEIQIVDLPGIIYGASQGKGRGRQVVATARTADLVLMVLDATKSEHQRASLEKELENVGIRLNKEKPNIYYKKKETGGVKVTFTSPPKTNLTEQAIKMILRDYRIHNAEVLVRDDQCTIDDFIDVINEQHRNYVKCLYVYNKIDAVSLEEVDKLAREPNTVVMSCEMDLGLQDVVEEIWYQLNLSRVYTKKRGVRPVFDDPLVVRNNSTIGDLCHGIHRDFKDKFKYALVWGSSAKHSPQKCGLNHRIDDEDVVSLFAK | soluble
MGIMEAERKTTGWAARDPSGILSPYTYTLRETGPEDVNIRIICCGICHTDLHQTKNDLGMSNYPMVPGHEVVGEVVEVGSDVSKFTVGDIVGVGCLVGCCGGCSPCERDLEQYCPKKIWSYNDVYINGQPTQGGFAKATVVHQKFVVKIPEGMAVEQAAPLLCAGVTVYSPLSHFGLKQPGLRGGILGLGGVGHMGVKIAKAMGHHVTVISSSNKKREEALQDLGADDYVIGSDQAKMSELADSLDYVIDTVPVHHALEPYLSLLKLDGKLILMGVINNPLQFLTPLLMLGRKVITGSFIGSMKETEEMLEFCKEKGLSSIIEVVKMDYVNTAFERLEKNDVRYRFVVDVEGSNLDA | soluble
MGINVQFRPMTIHDIDEVVQVERASFTSPWSRESFYNELMYNRYAKYIVMVYNGRIIGYGGMWLVIDEAHVTNVAVLPQFRGQKLGEALMRRLMDMARQHGAATMTLEVRVSNHVAQSLYRKLGFRNGGIRKRYYPDNFEDALVMWVKLR | not soluble
MGKEKSHINVVVIGHVDSGKSTTTGHLIYKCGGIDKRTIEKFEKEAAELGKGSFKYAWVLDKLKAERERGITIDIALWKFETPKYQVTVIDAPGHRDFIKNMITGTSQADCAILIIAGGVGEFEAGISKDGQTREHALLAFTLGVRQLIVAVNKMDSVKWDESRFQEIVKETSNFIKKVGYNPKTVPFVPISGWNGDNMIEATTNAPWYKGWEKETKAGVVKGKTLLEAIDAIEQPSRPTDKPLRLPLQDVYKIGGIGTVPVGRVETGVIKPGMVVTFAPAGVTTEVKSVEMHHEQLEQGVPGDNVGFNVKNVSVKEIRRGNVCGDAKNDPPKGCASFNATVIVLNHPGQISAGYSPVLDCHTAHIACRFDELLEKNDRRSGKKLEDHPKFLKSGDAALVKFVPSKPMCVEAFSEYPPLGRFAVRDMRQTVAVGVIKSVDKTEKAAKVTKAAQKAAKK | soluble
MGKIIAIANQKGGVGKTTTSVNLGAGLAQVGKKVLLVDIDAQGNATTGVGIEKSELDQCIYNVLVEDADVQGVIQKTATENLDVLPATIQLAGAEIELVPTISREVRLQRALQPVRDEYDYIIIDCPPSLGLLTINALTAADSVIIPVQCEYYALEGLSQLLNTVRLVQKHLNKNLAIQGVLLTMLDARTNLGIQVIDEVKKYFRDKVYRSIIPRNVRLSEAPSHGKPIMQYDAKSRGAEVYIDLAEEVIAGG | not soluble
MGKIVLTYRMPHNWNINPFLKEYQRLLQRAIDEIWDNTSWKEKKVKHRYSLGNEEYRYYETIRLIPYFPQSNDFKRGLRNKLLREWPFAKHYVDSAIKTAYSILKSWRQNYLKGRRKRVKPVVKRKFVRVKTTLMKVEGSKIRITIKPREEYLELDFSREWFYERIKDWKVGELIIRERDILLTFSKEVEFSGRIKIGIDSNLTSLDVYHPEKGWIRVDLSELHRISETYDRIIDMLKSIQRKAPKRIGLLLEKYWTRRRNRIEDYLNKLAVQLSREFPDAIFIFEGLNKFKMLQNGSRKFNRKLSRATWKKIVGKLSYRVPIEFVNPAYTSSTCPICGSKLESRNGLVECFNCGFKADRQFVGAFNILMRGLGVALSGVERDDLPPNEPRGELNAMRPKSVVRVDLNGRRFTHIHSLEHHHHHH | soluble
MGKKELKRGLVVDREAQMIGVYLFEDGKTYRGIPRGKVLKKTKINAGDYVWGEVVDPNTFAIEEVEERKNLLIRPKVANVDRVIIVETLKMPEFNNYLLDNMLVVYEYFKVEPVIVFNKIDLLNEEEKKELERWIAFTGMRATTFSRLEHHHHHH | not soluble
